Data on two molecules can be found in patent US20240182953, “METHODS AND COMPOSITIONS FOR DETECTING A TARGET RNA” (The Regents of the University of California, published 2024).

The target in one series is T1, LbuC2c2-dHEPN1/dHEPN2 (Leptotrichia buccalis, UniProt C7NBY4 SEQ:1-1159, R472A,H477A,R1048A,H1053A).
T1 sequence: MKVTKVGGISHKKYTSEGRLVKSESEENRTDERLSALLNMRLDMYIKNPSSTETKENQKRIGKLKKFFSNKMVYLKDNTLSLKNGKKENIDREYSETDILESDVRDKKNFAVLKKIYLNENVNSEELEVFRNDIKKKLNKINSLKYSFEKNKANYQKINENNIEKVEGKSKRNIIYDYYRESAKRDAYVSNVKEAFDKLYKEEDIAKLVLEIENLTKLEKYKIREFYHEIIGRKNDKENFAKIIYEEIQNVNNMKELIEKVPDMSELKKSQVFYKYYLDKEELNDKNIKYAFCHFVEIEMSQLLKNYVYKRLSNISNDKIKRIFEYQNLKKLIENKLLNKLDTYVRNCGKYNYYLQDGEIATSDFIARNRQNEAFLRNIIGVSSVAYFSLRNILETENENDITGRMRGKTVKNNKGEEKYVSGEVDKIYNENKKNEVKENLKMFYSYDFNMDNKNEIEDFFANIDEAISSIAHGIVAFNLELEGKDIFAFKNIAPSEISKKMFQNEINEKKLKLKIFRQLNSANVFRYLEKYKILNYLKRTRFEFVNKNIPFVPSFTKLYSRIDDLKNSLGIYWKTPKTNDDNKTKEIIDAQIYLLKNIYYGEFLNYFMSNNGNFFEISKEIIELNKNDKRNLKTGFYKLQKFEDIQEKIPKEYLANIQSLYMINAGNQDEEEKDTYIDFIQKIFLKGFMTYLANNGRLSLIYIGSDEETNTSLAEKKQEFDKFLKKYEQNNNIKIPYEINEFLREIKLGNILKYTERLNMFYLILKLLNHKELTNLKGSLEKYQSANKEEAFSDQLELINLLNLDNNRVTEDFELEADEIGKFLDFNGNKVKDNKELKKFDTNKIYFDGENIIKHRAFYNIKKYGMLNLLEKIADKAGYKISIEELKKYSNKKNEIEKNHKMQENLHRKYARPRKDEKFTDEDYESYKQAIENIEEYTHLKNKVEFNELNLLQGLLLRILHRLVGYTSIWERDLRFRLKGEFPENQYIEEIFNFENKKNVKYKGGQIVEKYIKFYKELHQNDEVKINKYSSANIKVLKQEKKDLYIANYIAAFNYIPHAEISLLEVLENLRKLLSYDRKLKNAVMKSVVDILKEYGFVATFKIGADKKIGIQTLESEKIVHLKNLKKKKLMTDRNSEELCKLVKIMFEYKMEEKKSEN
In words: EMSA; ssRNA A, no Mg listed in EMSA buffer, 37 C; which A variant was used not stated. The settings on record: tags: His6-MBP removed by TEV, label: 5'-32P, hairpin. How it is done:
(§1) The quantified data were fit to standard binding isotherms. Error bars represent the standard deviation from three independent experiments. […] Three independent experiments were conducted as described in the Methods. The gel was cropped for clarity. c, Quantified binding data from (b) were fitted to standard binding […]. Error bars represent the standard deviation from three independent experiments. […] The quantified data were fit to standard binding isotherms. Error bars represent the standard deviation from three independent experiments. Measured dissociation constants from three independent experiments (mean±sd) were 4.65±0.6 nM (LbuC2c2-WT) and 2.52±0.5 nM (LbuC2c2-R1079A). It is of note that these binding affinities differ from panel a. This difference is accounted for in a slight difference in the 5′ sequence of the guide with panel a guides beginning with a 5′-GGCCA . . . and panel d 5′-GACCA. While the native sequence guide (5′-GACCA) binds tighter to LbuC2c2, no difference is seen in the RNA targeting efficiencies of these guide variants (Extended Data FIG. 6c).
Electrophoretic mobility-shift assays. […]

For the next series, the target named is T2, LbuC2c2-R1079A (Leptotrichia buccalis, UniProt C7NBY4 SEQ:1-1159, R1079A).
T2 sequence: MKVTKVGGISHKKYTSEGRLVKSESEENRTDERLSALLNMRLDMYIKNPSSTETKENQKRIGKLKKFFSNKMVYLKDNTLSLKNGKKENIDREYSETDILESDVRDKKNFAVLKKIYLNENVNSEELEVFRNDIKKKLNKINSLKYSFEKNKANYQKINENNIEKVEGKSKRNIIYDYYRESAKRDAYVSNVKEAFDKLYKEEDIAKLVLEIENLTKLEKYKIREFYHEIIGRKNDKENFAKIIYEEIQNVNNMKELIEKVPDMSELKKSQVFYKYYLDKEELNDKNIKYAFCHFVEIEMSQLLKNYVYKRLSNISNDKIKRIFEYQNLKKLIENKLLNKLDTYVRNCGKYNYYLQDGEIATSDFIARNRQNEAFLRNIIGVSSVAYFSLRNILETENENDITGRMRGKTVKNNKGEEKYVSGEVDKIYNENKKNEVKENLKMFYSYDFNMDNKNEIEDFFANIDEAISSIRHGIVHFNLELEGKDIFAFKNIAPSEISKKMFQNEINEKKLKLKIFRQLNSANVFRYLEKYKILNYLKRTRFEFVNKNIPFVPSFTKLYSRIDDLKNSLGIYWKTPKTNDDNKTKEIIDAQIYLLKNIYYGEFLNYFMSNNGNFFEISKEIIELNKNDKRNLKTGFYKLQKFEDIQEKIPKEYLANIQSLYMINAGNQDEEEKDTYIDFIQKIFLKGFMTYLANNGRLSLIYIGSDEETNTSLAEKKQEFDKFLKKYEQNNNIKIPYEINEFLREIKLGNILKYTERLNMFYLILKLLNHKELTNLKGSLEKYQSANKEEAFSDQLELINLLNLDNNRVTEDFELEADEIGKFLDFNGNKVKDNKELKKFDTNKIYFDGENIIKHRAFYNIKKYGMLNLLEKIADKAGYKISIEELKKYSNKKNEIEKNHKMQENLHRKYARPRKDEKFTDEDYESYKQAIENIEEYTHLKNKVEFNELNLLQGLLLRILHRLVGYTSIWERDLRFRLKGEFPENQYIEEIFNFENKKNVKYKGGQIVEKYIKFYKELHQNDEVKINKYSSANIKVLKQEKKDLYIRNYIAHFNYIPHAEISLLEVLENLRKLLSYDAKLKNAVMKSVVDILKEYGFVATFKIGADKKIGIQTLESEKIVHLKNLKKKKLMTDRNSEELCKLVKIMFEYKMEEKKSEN
Nature of the series: filter; retains crRNA binding; Kd in truncated legend. The settings on record: tags: His6-MBP removed by TEV; label: 5'-32P; hairpin. The protocol: as §1
crRNA filter-binding assays. Filter binding assays was carried out in RNA processing buffer (20 mM HEPES pH 6.8, 50 mM KCl, 5 mM MgCl₂, […], 0.01% Igepal CA-630 and 5% glycerol). LbuC2c2 was incubated with radiolabeled crRNA (<0.1 nM) for 1 hr at 37° C. […]

B1: crRNA-A_GG (mature) ; target A ssRNA (ssRNA ; ssRNA)
RNA 1: GGCCACCCCAAAAAUGAAGGGGACUAAAACAGGGGCAGAGAUGAUGACCCU
RNA 2: GGCUCAUUUGCAGGGUUUAGCCAAAAGGGUCAUCAUCUCUGCCCCCUCUGCUGAUGCCCC
Regarding B1, the Kd (usually the equilibrium constant for the complex coming apart) with LbuC2c2-dHEPN1/dHEPN2 stood at 1.62 nM.

B2: crRNA-A_GA (mature) (ssRNA)
RNA: GACCACCCCAAAAAUGAAGGGGACUAAAACAGGGGCAGAGAUGAUGACCCU
On to B2, for which the binding result with LbuC2c2-R1079A is reported as “binds”.
